Laboratory results: patent publication EP4786492A1

Columns and labels:
[1] = target: human DLL3 protein expressed on CHO-K1 recombinant cells (human DLL3 extracellular segment fused to EpCAM transmembrane and intracellular regions) (human) (UniProt Q9NYJ7); experiment: FACS, CHO-K1 hDLL3 cells, 0.8 nM antibody
[2] = target: human DLL3 protein expressed on CHO-K1 recombinant cells (human DLL3 extracellular segment fused to EpCAM transmembrane and intracellular regions) (human) (UniProt Q9NYJ7); experiment: FACS, CHO-K1 hDLL3 cells, 100 nM antibody
[3] = target: mouse DLL3 on CHO-K1-mDLL3 cells (mouse) (UniProt O88516); experiment: FACS, CHO-K1-mDLL3 cells, 20 nM antibody
Sequence of mouse DLL3 on CHO-K1-mDLL3 cells (mouse) (O88516 other isoform, or with tags, fused parts or gaps limits assumed): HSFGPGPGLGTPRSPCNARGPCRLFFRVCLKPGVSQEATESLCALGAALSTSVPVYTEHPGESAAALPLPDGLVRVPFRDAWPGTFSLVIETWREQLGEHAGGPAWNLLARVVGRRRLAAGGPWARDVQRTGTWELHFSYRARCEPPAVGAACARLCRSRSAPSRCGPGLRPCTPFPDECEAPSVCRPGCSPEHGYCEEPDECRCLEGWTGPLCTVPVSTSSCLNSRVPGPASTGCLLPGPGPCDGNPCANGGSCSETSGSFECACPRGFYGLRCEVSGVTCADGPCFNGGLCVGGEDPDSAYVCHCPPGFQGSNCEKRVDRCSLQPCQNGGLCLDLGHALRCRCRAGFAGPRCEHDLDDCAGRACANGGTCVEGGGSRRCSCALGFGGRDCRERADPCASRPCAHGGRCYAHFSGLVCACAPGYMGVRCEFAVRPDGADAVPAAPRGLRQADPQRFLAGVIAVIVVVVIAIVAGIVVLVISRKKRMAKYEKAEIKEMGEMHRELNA

[4] = target: mouse DLL3 on CHO-K1-mDLL3 cells (mouse) (UniProt O88516); experiment: FACS, CHO-K1-mDLL3 cells, 0.8 nM antibody
[5] = target: monkey DLL3 on CHO-K1-cyno DLL3 cells (cynomolgus monkey); experiment: FACS, CHO-K1-cyno DLL3 cells, 0.032 nM antibody
Sequence of monkey DLL3 on CHO-K1-cyno DLL3 cells (cynomolgus monkey) (chain, as listed by the source limits assumed): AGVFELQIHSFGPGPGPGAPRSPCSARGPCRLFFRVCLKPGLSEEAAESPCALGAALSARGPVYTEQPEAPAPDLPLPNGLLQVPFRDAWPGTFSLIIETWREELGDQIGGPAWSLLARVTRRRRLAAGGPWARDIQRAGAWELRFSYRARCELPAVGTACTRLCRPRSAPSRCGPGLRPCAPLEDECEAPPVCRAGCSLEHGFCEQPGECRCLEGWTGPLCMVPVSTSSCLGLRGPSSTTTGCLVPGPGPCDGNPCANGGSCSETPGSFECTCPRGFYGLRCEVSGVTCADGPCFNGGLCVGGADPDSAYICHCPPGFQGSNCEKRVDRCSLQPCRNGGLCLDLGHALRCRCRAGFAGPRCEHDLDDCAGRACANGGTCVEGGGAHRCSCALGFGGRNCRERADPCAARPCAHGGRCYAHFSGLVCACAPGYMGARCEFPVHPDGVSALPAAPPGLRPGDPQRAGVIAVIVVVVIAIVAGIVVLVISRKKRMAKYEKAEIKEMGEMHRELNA

[6] = target: monkey DLL3 on CHO-K1-cyno DLL3 cells (cynomolgus monkey); experiment: FACS, CHO-K1-cyno DLL3 cells, 4 nM antibody
[7] = target: human DLL3 protein expressed on CHO-K1 recombinant cells (human DLL3 extracellular segment fused to EpCAM transmembrane and intracellular regions) (human) (UniProt Q9NYJ7); experiment: FACS, CHO-K1 hDLL3 cells, 20 nM antibody
[8] = target: mouse DLL3 on CHO-K1-mDLL3 cells (mouse) (UniProt O88516); experiment: FACS, CHO-K1-mDLL3 cells, 100 nM antibody
[9] = target: DLL3 endogenously expressed on NCI-H82 cells (UniProt Q9NYJ7); experiment: FACS on NCI-H82 cells; antibody 4 nM
Sequence of DLL3 endogenously expressed on NCI-H82 cells (Q9NYJ7 27-618): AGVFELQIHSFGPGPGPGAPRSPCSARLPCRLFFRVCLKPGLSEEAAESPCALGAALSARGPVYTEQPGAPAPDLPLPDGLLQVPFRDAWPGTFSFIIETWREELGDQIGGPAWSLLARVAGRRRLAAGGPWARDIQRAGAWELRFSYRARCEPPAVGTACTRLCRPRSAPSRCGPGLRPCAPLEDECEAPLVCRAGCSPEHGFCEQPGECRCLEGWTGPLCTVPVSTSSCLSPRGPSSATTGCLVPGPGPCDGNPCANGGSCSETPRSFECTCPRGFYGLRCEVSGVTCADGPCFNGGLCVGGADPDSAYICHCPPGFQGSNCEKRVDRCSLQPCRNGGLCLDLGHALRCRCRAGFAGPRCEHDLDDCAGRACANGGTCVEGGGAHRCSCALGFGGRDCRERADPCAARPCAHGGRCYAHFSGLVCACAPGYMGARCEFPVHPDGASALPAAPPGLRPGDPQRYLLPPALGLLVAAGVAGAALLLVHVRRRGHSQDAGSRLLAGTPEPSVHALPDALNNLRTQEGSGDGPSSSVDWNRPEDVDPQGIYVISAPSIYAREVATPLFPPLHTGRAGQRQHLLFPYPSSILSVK

[10] = target: mouse DLL3 on CHO-K1-mDLL3 cells (mouse) (UniProt O88516); experiment: FACS, CHO-K1-mDLL3 cells, 0.16 nM antibody
[11] = target: human DLL4 protein (Acro, Cat. No. DL4-H5227) (human) (UniProt Q9NR61); experiment: ELISA, coated hDLL4; maximum over 0.1, 1, 10, 100 nM antibody
Sequence of human DLL4 protein (Acro, Cat. No. DL4-H5227) (human) (Q9NR61 27-524 limits assumed): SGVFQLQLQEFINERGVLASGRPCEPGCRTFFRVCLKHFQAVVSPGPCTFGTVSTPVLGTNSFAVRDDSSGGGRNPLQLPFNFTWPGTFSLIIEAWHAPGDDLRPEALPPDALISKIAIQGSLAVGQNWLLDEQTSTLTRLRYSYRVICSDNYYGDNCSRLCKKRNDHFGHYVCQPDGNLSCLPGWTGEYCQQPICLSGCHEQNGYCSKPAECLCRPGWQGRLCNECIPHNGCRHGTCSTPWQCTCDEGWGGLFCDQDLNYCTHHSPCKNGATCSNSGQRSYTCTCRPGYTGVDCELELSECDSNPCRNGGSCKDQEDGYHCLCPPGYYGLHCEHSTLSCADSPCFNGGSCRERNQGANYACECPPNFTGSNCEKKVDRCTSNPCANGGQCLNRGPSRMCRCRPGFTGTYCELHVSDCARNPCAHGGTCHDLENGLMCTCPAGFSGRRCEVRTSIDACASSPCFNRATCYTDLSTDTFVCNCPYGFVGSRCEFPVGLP

[12] = target: DLL3 endogenously expressed on NCI-H82 cells (UniProt Q9NYJ7); experiment: FACS on NCI-H82 cells; antibody 0.16 nM
[13] = target: monkey DLL3 on CHO-K1-cyno DLL3 cells (cynomolgus monkey); experiment: FACS, CHO-K1-cyno DLL3 cells, 0.16 nM antibody
[14] = target: DLL3 endogenously expressed on NCI-H82 cells (UniProt Q9NYJ7); experiment: FACS on NCI-H82 cells; antibody 0.032 nM
[15] = target: human delta-like ligand 3 (DLL3) on SHP77 cells (human) (UniProt Q9NYJ7); experiment: FACS on SHP77 cells
Sequence of human delta-like ligand 3 (DLL3) on SHP77 cells (human) (Q9NYJ7 27-618, stated change not applied): as the sequence (Q9NYJ7 27-618) above

[16] = target: mouse DLL3 on CHO-K1-mDLL3 cells (mouse) (UniProt O88516); experiment: FACS, CHO-K1-mDLL3 cells, 4 nM antibody
[17] = target: mouse DLL3 on CHO-K1-mDLL3 cells (mouse) (UniProt O88516); experiment: FACS, CHO-K1-mDLL3 cells, 0.00128 nM antibody
[18] = target: monkey DLL3 on CHO-K1-cyno DLL3 cells (cynomolgus monkey); experiment: FACS, CHO-K1-cyno DLL3 cells, 0.0064 nM antibody
[19] = target: mouse DLL3 on CHO-K1-mDLL3 cells (mouse) (UniProt O88516); experiment: FACS, CHO-K1-mDLL3 cells, 0.0064 nM antibody
[20] = target: mouse DLL3 on CHO-K1-mDLL3 cells (mouse) (UniProt O88516); experiment: FACS, CHO-K1-mDLL3 cells, 0.032 nM antibody
[21] = target: DLL3 endogenously expressed on NCI-H82 cells (UniProt Q9NYJ7); experiment: FACS on NCI-H82 cells; antibody 20 nM
[22] = target: monkey DLL3 on CHO-K1-cyno DLL3 cells (cynomolgus monkey); experiment: FACS, CHO-K1-cyno DLL3 cells, 20 nM antibody
[23] = target: human DLL3 protein expressed on CHO-K1 recombinant cells (human DLL3 extracellular segment fused to EpCAM transmembrane and intracellular regions) (human) (UniProt Q9NYJ7); experiment: FACS, CHO-K1 hDLL3 cells, 0.16 nM antibody
[24] = target: DLL3 endogenously expressed on NCI-H82 cells (UniProt Q9NYJ7); experiment: FACS on NCI-H82 cells; antibody 0.0064 nM
[25] = target: DLL3 endogenously expressed on NCI-H82 cells (UniProt Q9NYJ7); experiment: FACS on NCI-H82 cells; antibody 100 nM
[26] = target: human DLL3 protein expressed on CHO-K1 recombinant cells (human DLL3 extracellular segment fused to EpCAM transmembrane and intracellular regions) (human) (UniProt Q9NYJ7); experiment: FACS, CHO-K1 hDLL3 cells, 0.0064 nM antibody
[27] = target: monkey DLL3 on CHO-K1-cyno DLL3 cells (cynomolgus monkey); experiment: FACS, CHO-K1-cyno DLL3 cells, 100 nM antibody
[28] = target: monkey DLL3 on CHO-K1-cyno DLL3 cells (cynomolgus monkey); experiment: FACS, CHO-K1-cyno DLL3 cells, 0.00128 nM antibody
[29] = target: monkey DLL3 on CHO-K1-cyno DLL3 cells (cynomolgus monkey); experiment: FACS, CHO-K1-cyno DLL3 cells, 0.8 nM antibody
[30] = target: human DLL3 protein expressed on CHO-K1 recombinant cells (human DLL3 extracellular segment fused to EpCAM transmembrane and intracellular regions) (human) (UniProt Q9NYJ7); experiment: FACS, CHO-K1 hDLL3 cells, 0.00128 nM antibody
[31] = target: human DLL1 protein (Acro, Cat. No. DL1-H52H8) (human) (UniProt O00548); experiment: ELISA, coated hDLL1; maximum over 0.1, 1, 10, 100 nM antibody
Sequence of human DLL1 protein (Acro, Cat. No. DL1-H52H8) (human) (O00548 18-540 limits assumed): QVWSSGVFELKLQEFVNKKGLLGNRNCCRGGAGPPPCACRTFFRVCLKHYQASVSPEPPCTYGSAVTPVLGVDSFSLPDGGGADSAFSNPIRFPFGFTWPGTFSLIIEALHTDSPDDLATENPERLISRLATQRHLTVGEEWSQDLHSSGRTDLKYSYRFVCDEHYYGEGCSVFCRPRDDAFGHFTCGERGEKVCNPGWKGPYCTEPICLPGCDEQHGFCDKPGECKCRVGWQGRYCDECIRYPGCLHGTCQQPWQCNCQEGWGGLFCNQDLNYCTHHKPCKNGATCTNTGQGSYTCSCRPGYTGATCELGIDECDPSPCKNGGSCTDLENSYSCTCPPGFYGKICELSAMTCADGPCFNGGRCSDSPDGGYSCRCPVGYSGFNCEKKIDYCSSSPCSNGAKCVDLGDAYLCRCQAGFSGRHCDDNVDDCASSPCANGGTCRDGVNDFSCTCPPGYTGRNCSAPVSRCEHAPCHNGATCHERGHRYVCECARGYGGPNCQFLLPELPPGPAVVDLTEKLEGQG

[32] = target: human DLL3 protein (extracellular segment, His tag) (human) (UniProt Q9NYJ7); experiment: SPR (Biacore 8K), antibody captured on Protein A chip, DLL3 antigen in solution, 1:1 Langmuir fit
Sequence of human DLL3 protein (extracellular segment, His tag) (human) (Q9NYJ7 27-492): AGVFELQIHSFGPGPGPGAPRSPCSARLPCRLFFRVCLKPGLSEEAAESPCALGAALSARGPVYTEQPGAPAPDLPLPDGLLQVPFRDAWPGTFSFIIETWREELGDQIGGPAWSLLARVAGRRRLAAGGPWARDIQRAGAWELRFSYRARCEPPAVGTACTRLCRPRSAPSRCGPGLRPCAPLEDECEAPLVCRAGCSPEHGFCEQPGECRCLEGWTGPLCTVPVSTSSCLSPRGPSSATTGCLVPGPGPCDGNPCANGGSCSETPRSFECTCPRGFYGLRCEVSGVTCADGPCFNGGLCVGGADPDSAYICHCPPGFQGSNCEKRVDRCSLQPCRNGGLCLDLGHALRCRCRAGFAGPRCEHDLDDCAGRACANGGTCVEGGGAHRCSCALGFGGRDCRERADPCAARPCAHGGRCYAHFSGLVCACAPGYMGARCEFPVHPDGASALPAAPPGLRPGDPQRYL

[33] = target: DLL3 endogenously expressed on NCI-H82 cells (UniProt Q9NYJ7); experiment: FACS on NCI-H82 cells; antibody 0.00128 nM
[34] = target: human DLL3 protein expressed on CHO-K1 recombinant cells (human DLL3 extracellular segment fused to EpCAM transmembrane and intracellular regions) (human) (UniProt Q9NYJ7); experiment: FACS, CHO-K1 hDLL3 cells, 0.032 nM antibody
[35] = target: human DLL3 protein expressed on CHO-K1 recombinant cells (human DLL3 extracellular segment fused to EpCAM transmembrane and intracellular regions) (human) (UniProt Q9NYJ7); experiment: FACS, CHO-K1 hDLL3 cells, 4 nM antibody
[36] = target: DLL3 endogenously expressed on NCI-H82 cells (UniProt Q9NYJ7); experiment: FACS on NCI-H82 cells; antibody 0.8 nM

Sequence of human DLL3 protein expressed on CHO-K1 recombinant cells (human DLL3 extracellular segment fused to EpCAM transmembrane and intracellular regions) (human) (Q9NYJ7 other isoform, or with tags, fused parts or gaps limits assumed): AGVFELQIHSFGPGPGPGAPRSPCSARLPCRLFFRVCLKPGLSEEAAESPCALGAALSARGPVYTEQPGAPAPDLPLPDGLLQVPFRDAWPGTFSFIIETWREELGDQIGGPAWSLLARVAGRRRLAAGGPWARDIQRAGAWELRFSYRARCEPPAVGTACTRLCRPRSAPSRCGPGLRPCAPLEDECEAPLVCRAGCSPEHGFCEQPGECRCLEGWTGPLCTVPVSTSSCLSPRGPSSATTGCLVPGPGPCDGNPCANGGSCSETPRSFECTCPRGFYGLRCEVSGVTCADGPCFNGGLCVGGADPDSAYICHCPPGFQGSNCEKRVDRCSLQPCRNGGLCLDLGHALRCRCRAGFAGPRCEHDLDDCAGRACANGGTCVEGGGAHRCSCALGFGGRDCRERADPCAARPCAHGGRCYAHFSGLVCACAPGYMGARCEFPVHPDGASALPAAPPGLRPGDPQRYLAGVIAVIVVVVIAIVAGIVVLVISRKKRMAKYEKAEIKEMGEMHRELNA

MFI [1]: 9190 MFI | MFI [2]: 16000 MFI | MFI [3]: 355 MFI | MFI [4]: 268 MFI | MFI [5]: 692 MFI | MFI [6]: 25900 MFI | MFI [7]: 15100 MFI | MFI [8]: 389 MFI | MFI [9]: 625 | MFI [10]: 208 MFI | Emax of OD450 nm binding value [11]: 0.13 OD450 nm | MFI [12]: 419 | MFI [13]: 2190 MFI | MFI [14]: 204 | MFI at 0.00128 nM [15]: 90 MFI | MFI at 0.0064 nM [15]: 94 MFI | MFI at 0.032 nM [15]: 116 MFI | MFI at 0.16 nM [15]: 192 MFI | MFI at 0.8 nM [15]: 403 MFI | MFI at 4 nM [15]: 628 MFI | MFI at 20 nM [15]: 818 MFI | MFI at 100 nM [15]: 1120 MFI | MFI [16]: 311 MFI | MFI [17]: 109 MFI | MFI [18]: 306 MFI | MFI [19]: 122 MFI | MFI [20]: 148 MFI | MFI [21]: 784 | MFI [22]: 31500 MFI | MFI [23]: 2130 MFI | MFI [24]: 130 | MFI [25]: 1100 | MFI [26]: 306 MFI | MFI [27]: 32800 MFI | MFI [28]: 215 MFI | MFI [29]: 9960 MFI | MFI [30]: 221 MFI | Emax of OD450 nm binding value [31]: 0.1 OD450 nm | Kd [32]: 0.0772 nM | koff [32]: 7.84e-05 s⁻¹ | kon [32]: 1.02e+06 M⁻¹ s⁻¹ | MFI [33]: 110 | MFI [34]: 698 MFI | MFI [35]: 14000 MFI | MFI [36]: 580
B1: Hab014VL1VH2-hFc (scFv, part only; not given: VL-VH linker and human IgG1 Fc, V domains shown, not shown: another chain or arm of the molecule; a dimerising Fc or GST; small tags and cut ends)
VL: DIQMTQSPSSLSASVGDRVTITCKASEDIYNRLAWYQQKPGKVPKLLISGATSLETGVPSRFSGSGSGTDFTLTISSLQPEDVATYYCQQYWSLPWTFGGGTKVEIK
VH: EVQLVQSGAEVKKPGASVKVSCKASGYTFTDYYMNWVRQAPGQRLEWMGDINPNHGDTGYNQKFTGRVTLTVDKSASTAYMELSSLRSEDTAVYYCARNFFYYGTTYGWYFDVWGQGTTVTVSS
